This is an account of results in publication PMC12691602, “Cryo-EM structure of the QseG-QseE complex reveals an accessory protein-driven two-component system activation mechanism” (mBio, 2025).

The term stoichiometry N denotes the number of molecules, sites or subunits per partner or assembly. Usually Kd stands for the equilibrium constant for the complex coming apart. A higher Kd goes with a looser complex.

Series [1] addresses strep-tagged QseE_(1-196) (Salmonella enterica serovar Typhimurium SL1344). Nature of the series: cross-linking; QseE constructs in solution (Fig. S2A); cross-linker and conditions not shown.
Series [2] deals with the molecule itself. Kind of series: cryo-EM structure; QseG_(37-221) and QseE mixed at 3:1 molar ratio, complex separated by SEC; 3.9 Å map with C2 symmetry imposed; model limited to QseG 58-220 and QseE 34-173. Background: In gel filtration, larger molecules generally elute earlier.
The target of another series is T1, QseE-eGFP (Salmonella enterica serovar Typhimurium …, UniProt A0A4Z0KJZ8 1-461).
T1 construct: QseE of S. Typhimurium SL1344 fused to eGFP; source: E. coli, purified
T1 sequence: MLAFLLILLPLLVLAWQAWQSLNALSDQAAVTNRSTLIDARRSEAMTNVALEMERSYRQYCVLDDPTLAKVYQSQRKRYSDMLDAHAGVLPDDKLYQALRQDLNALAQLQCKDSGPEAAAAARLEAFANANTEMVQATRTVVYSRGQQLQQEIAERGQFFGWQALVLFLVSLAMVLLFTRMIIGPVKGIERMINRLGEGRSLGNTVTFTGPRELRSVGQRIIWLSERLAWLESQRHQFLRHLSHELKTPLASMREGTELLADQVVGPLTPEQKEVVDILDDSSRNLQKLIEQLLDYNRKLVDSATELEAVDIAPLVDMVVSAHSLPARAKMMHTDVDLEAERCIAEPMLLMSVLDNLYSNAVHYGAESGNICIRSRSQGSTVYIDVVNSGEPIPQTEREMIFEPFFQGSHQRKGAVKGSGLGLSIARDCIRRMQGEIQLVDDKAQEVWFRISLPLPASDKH
Nature of the series: MST; QseG_(37-end) in serial dilution mixed with QseE-eGFP; 20 mM HEPES pH 7.5, 150 mM NaCl, 0.02% DDM, 0.05% Tween 20; 25°C, 30 min; Monolith NT.115, medium MST power, 40% LED. Particulars: both partners purified.

For a further series, the target named is T2, QseE (Escherichia coli, UniProt Q8XA47).
T2 chain: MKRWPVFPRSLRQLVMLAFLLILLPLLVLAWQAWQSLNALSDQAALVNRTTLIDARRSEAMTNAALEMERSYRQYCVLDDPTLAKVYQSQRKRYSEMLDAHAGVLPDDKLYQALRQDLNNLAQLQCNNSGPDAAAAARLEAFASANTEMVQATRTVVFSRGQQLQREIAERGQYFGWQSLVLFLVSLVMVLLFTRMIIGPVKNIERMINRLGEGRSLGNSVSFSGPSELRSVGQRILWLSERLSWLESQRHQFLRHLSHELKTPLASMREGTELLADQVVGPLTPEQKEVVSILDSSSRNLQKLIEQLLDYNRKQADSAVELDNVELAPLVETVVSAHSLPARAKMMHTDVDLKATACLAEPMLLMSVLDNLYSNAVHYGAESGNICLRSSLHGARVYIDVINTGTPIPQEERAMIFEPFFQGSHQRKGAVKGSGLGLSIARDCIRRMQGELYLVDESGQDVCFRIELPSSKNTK

For the molecule “strep-tagged QseE_(1-196) (from UniProt A0A4Z0KJZ8 1-196) (domain or fragment)”, the stoichiometry N in series [1] stood at 2.

B1: full-length QseE (QseEfl), C-terminal Strep II tag (natural protein)
chain: T1 sequence
notes: Dimer by cross-linking and in the cryo-EM structure; also called strep-tagged QseE; source: E. coli C43(DE3), purified from membranes in LMNG/CHS (Strep-Tactin, SEC); not shown: Strep II, C-terminal, kept
As to B1, in series [2], the “stoichiometry N” value came out at 2.

B2: QseG (mature lipoprotein, QseG_(37-end)) (natural protein)
chain: CVPHASQQLPDSAAQDTLPHYQLADYLPTACADIWSLRGQAVETNPLYWLRTIDCADRLMPVQSRAEARALTDDNWQNAFRRGILLADAKITPPERRAIVTRLEALSAQIPAQVRPVYQIWHDGQALQLALSAERQRYSKLQQTSDSELDALRQQQQALQTQLDLTTRKLESLTDIERQLSTRKPAGNYNADTPHTNDKPATSEDGAAPSPSQDEVTP
notes: also called wild-type QseG; source: E. coli C43(DE3), purified (Strep-Tactin, on-column TEV cleavage, SEC); not shown: Strep II, N-terminal, cleaved
Molecule B2 yielded a Kd with QseE-eGFP of 108 nM.

B3: QseG (protein)
chain: CVQNHNKPAIDTPAEEKIPVYQLADYLSTECSDIWALQGKSTETNPLYWLRAMDCADRLMPAQSRQQARQYDDGSWQNTFKQGILLADAKITPYERRQLVARIEALSTEIPAQVRPLYQLWRDGQALQLQLAEERQRYSKLQQSSDSELDTLRQQHHVLQQQLELTTRKLENLTDIERQLSTRKPAGNFSPDTPHESEKPAPSTHEVTPDEP
As for B3, the Kd with QseE came out at 109 nM.

B4: QseG_(37-221) (domain or fragment)
chain: CVPHASQQLPDSAAQDTLPHYQLADYLPTACADIWSLRGQAVETNPLYWLRTIDCADRLMPVQSRAEARALTDDNWQNAFRRGILLADAKITPPERRAIVTRLEALSAQIPAQVRPVYQIWHDGQALQLALSAERQRYSKLQQTSDSELDALRQQQQALQTQLDLTTRKLESLTDIERQLSTRKP
notes: QseG of S. Typhimurium SL1344, residues 37-221; Homodimer in the cryo-EM structure of the complex; source: E. coli C43(DE3), purified (Strep-Tactin, on-column TEV cleavage, SEC); not shown: Strep II, N-terminal, cleaved
Consider B4, for which the “stoichiometry N” value in series [2] is 2.
